# Numbered stars: 1 amine (or outer) side, 2 acyl side, 3 side chain; on linkers, the order of the positions; unused ones are H or OH. Bridge positions count the residues as written; N and C are the ends. Square brackets hold non-standard residues; d marks the D form. Primed or numbered codes have the meaning given here. Tyr(Me) = Yme = 4-methoxy-L-phenylalanine (O-methyl-tyrosine), COc1ccc(C[C@H](N[*:1])C(=O)[*:2])cc1; Tyr(Me)″ = O-methyl-tyrosine (4-methoxy-phenylalanine), COc1ccc(C[C@H](N[*:1])C(=O)[*:2])cc1; 1Nal = N[C@@H](Cc1cccc2ccccc12)C(=O)O; 2Nal = N[C@@H](Cc1ccc2ccccc2c1)C(=O)O; AEF = NCCOc1ccc(C[C@H](N)C(=O)O)cc1; Cit = NC(=O)NCCC[C@H](N)C(=O)O; Orn = NCCC[C@H](N)C(=O)O; Aib = CC(C)(N)C(=O)O
# T1: recombinant human IL-23R-Fc chimera (human, UniProt Q5VWK5 24-353, limits assumed)
# T1 construct: Recombinant reagent; also called interleukin-23 receptor; not shown: detected with goat anti-hu-IgG1-HRP antibody
# T1 sequence (looked up): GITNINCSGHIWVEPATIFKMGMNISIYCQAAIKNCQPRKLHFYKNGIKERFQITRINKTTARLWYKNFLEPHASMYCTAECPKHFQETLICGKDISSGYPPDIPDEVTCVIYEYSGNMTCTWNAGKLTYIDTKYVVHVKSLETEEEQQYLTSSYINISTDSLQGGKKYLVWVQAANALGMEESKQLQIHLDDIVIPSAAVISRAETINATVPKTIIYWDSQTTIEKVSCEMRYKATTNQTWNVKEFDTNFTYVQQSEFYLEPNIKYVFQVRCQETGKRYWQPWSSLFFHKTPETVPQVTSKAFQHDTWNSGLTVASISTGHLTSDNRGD
# T2: IL-23 receptor on the surface of HEK-Blue IL-23 cells (UniProt Q5VWK5 24-629, limits assumed)
# T2 sequence (looked up): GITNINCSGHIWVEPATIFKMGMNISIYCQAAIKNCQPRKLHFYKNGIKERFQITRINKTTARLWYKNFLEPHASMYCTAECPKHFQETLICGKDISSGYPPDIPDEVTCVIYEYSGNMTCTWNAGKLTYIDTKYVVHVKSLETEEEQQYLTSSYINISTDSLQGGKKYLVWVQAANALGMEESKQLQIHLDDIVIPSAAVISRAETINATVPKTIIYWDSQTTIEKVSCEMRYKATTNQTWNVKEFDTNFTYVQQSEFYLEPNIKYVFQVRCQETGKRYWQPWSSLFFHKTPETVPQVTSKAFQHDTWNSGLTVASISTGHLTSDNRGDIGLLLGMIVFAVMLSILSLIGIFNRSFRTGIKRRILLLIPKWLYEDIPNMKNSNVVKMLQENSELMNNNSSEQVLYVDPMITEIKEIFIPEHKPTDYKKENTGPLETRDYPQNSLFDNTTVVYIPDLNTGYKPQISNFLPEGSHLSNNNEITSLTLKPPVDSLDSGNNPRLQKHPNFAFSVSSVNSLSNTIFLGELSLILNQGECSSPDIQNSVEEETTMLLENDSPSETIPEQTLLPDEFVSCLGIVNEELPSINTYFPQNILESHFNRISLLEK
# B1: peptide compound SEQ ID NO: 18 (peptide)
# peptide: Ac-[dK]NTWQR[Tyr(Me)][1Nal][Cit]DNN-NH2
# modifications: lactam 1-10
# SMILES: COc1ccc(C[C@@H]2NC(=O)[C@H](CCCNC(=N)N)NC(=O)[C@H](CCC(N)=O)NC(=O)[C@H](Cc3c[nH]c4ccccc34)NC(=O)[C@H]([C@@H](C)O)NC(=O)[C@H](CC(N)=O)NC(=O)[C@H](NC(C)=O)CCCCNC(=O)C[C@@H](C(=O)N[C@@H](CC(N)=O)C(=O)N[C@@H](CC(N)=O)C(N)=O)NC(=O)[C@H](CCCNC(N)=O)NC(=O)[C@H](Cc3cccc4ccccc34)NC2=O)cc1
# B2: peptide compound SEQ ID NO: 26 (peptide)
# peptide: Ac-[dK]NTWQR[Tyr(Me)][2Nal][Aib]DN-NH2
# modifications: lactam 1-10
# SMILES: COc1ccc(C[C@@H]2NC(=O)[C@H](CCCNC(=N)N)NC(=O)[C@H](CCC(N)=O)NC(=O)[C@H](Cc3c[nH]c4ccccc34)NC(=O)[C@H]([C@@H](C)O)NC(=O)[C@H](CC(N)=O)NC(=O)[C@H](NC(C)=O)CCCCNC(=O)C[C@@H](C(=O)N[C@@H](CC(N)=O)C(N)=O)NC(=O)C(C)(C)NC(=O)[C@H](Cc3ccc4ccccc4c3)NC2=O)cc1
# B3: peptide compound SEQ ID NO: 38 (peptide)
# peptide: Ac-[Orn]NTWQR[AEF][2Nal][Aib]ENN-NH2
# modifications: lactam 1-10
# SMILES: CC(=O)N[C@H]1CCCNC(=O)CC[C@@H](C(=O)N[C@@H](CC(N)=O)C(=O)N[C@@H](CC(N)=O)C(N)=O)NC(=O)C(C)(C)NC(=O)[C@H](Cc2ccc3ccccc3c2)NC(=O)[C@H](Cc2ccc(OCCN)cc2)NC(=O)[C@H](CCCNC(=N)N)NC(=O)[C@H](CCC(N)=O)NC(=O)[C@H](Cc2c[nH]c3ccccc23)NC(=O)[C@H]([C@@H](C)O)NC(=O)[C@H](CC(N)=O)NC1=O
# B4: peptide compound SEQ ID NO: 14 (peptide)
# peptide: Ac-[dK]NTWQRY[1Nal][Aib]DNN-NH2
# modifications: lactam 1-10
# SMILES: CC(=O)N[C@@H]1CCCCNC(=O)C[C@@H](C(=O)N[C@@H](CC(N)=O)C(=O)N[C@@H](CC(N)=O)C(N)=O)NC(=O)C(C)(C)NC(=O)[C@H](Cc2cccc3ccccc23)NC(=O)[C@H](Cc2ccc(O)cc2)NC(=O)[C@H](CCCNC(=N)N)NC(=O)[C@H](CCC(N)=O)NC(=O)[C@H](Cc2c[nH]c3ccccc23)NC(=O)[C@H]([C@@H](C)O)NC(=O)[C@H](CC(N)=O)NC1=O
# notes: synthetic macrolactam
# B5: peptide compound SEQ ID NO: 17 (peptide)
# peptide: Ac-[dK]NTWQR[Tyr(Me)″][1Nal]K(Ac)DNN-NH2
# modifications: lactam 1-10
# SMILES: COc1ccc(C[C@@H]2NC(=O)[C@H](CCCNC(=N)N)NC(=O)[C@H](CCC(N)=O)NC(=O)[C@H](Cc3c[nH]c4ccccc34)NC(=O)[C@H]([C@@H](C)O)NC(=O)[C@H](CC(N)=O)NC(=O)[C@H](NC(C)=O)CCCCNC(=O)C[C@@H](C(=O)N[C@@H](CC(N)=O)C(=O)N[C@@H](CC(N)=O)C(N)=O)NC(=O)[C@H](CCCCNC(C)=O)NC(=O)[C@H](Cc3cccc4ccccc34)NC2=O)cc1
# notes: synthetic macrolactam
# B6: peptide compound SEQ ID NO: 19 (peptide)
# peptide: Ac-[dK]NTWQR[Tyr(Me)″][1Nal]QDNN-NH2
# modifications: lactam 1-10
# SMILES: COc1ccc(C[C@@H]2NC(=O)[C@H](CCCNC(=N)N)NC(=O)[C@H](CCC(N)=O)NC(=O)[C@H](Cc3c[nH]c4ccccc34)NC(=O)[C@H]([C@@H](C)O)NC(=O)[C@H](CC(N)=O)NC(=O)[C@H](NC(C)=O)CCCCNC(=O)C[C@@H](C(=O)N[C@@H](CC(N)=O)C(=O)N[C@@H](CC(N)=O)C(N)=O)NC(=O)[C@H](CCC(N)=O)NC(=O)[C@H](Cc3cccc4ccccc34)NC2=O)cc1
# notes: synthetic macrolactam
# B7: peptide compound SEQ ID NO: 30 (peptide)
# peptide: Ac-[dK]NTWQR[Tyr(Me)″][2Nal]QDNN-NH2
# modifications: lactam 1-10
# SMILES: COc1ccc(C[C@@H]2NC(=O)[C@H](CCCNC(=N)N)NC(=O)[C@H](CCC(N)=O)NC(=O)[C@H](Cc3c[nH]c4ccccc34)NC(=O)[C@H]([C@@H](C)O)NC(=O)[C@H](CC(N)=O)NC(=O)[C@H](NC(C)=O)CCCCNC(=O)C[C@@H](C(=O)N[C@@H](CC(N)=O)C(=O)N[C@@H](CC(N)=O)C(N)=O)NC(=O)[C@H](CCC(N)=O)NC(=O)[C@H](Cc3ccc4ccccc4c3)NC2=O)cc1
# notes: synthetic macrolactam
# B8: peptide compound SEQ ID NO: 28 (peptide)
# peptide: Ac-[dK]NTWQR[Tyr(Me)″][2Nal]K(Ac)DNN-NH2
# modifications: lactam 1-10
# SMILES: COc1ccc(C[C@@H]2NC(=O)[C@H](CCCNC(=N)N)NC(=O)[C@H](CCC(N)=O)NC(=O)[C@H](Cc3c[nH]c4ccccc34)NC(=O)[C@H]([C@@H](C)O)NC(=O)[C@H](CC(N)=O)NC(=O)[C@H](NC(C)=O)CCCCNC(=O)C[C@@H](C(=O)N[C@@H](CC(N)=O)C(=O)N[C@@H](CC(N)=O)C(N)=O)NC(=O)[C@H](CCCCNC(C)=O)NC(=O)[C@H](Cc3ccc4ccccc4c3)NC2=O)cc1
# notes: synthetic macrolactam
# B9: peptide compound SEQ ID NO: 4 (peptide)
# peptide: Ac-[dK]NTWQRY[2Nal][Aib]DNN-NH2
# modifications: lactam 1-10
# notes: synthetic macrolactam
# B10: peptide compound SEQ ID NO: 9 (peptide)
# peptide: Ac-KNTWQR[Tyr(Me)″][1Nal][Aib]DNN-NH2
# modifications: lactam 1-10
# SMILES: COc1ccc(C[C@@H]2NC(=O)[C@H](CCCNC(=N)N)NC(=O)[C@H](CCC(N)=O)NC(=O)[C@H](Cc3c[nH]c4ccccc34)NC(=O)[C@H]([C@@H](C)O)NC(=O)[C@H](CC(N)=O)NC(=O)[C@@H](NC(C)=O)CCCCNC(=O)C[C@@H](C(=O)N[C@@H](CC(N)=O)C(=O)N[C@@H](CC(N)=O)C(N)=O)NC(=O)C(C)(C)NC(=O)[C@H](Cc3cccc4ccccc34)NC2=O)cc1
# notes: synthetic macrolactam
# Target: T1, recombinant human IL-23R-Fc chimera
# Assay: competition ELISA: coated human IL-23, IL-23R-Fc 0.1 ug/ml, peptide titrated
# Description: Antagonism of peptide compounds for human interleukin-23 receptor inhibitors, was determined by an ELISA assay.
# A 384-well plate was coated with 50 μl/well of human IL-23 at a final concentration of 1 μg/ml and incubated overnight at 4° C. The wells were washed 3 times with 80 μl wash buffer and blocked with 80 μl blocking buffer for 60 minutes at room temperature and washed again. 20 μl of serially diluted test peptides was added to each well and subsequently 20 μl of recombinant human IL-23R-Fc chimera at final concentration of 0.1 μg/ml. The plate was incubated for 60 minutes at room temperature. After the wells were washed, bound IL-23R-Fc was detected with goat anti-hu-lgG1-HRP antibody. Signals were visualized with QuantaBlu Fluorogenic Peroxidase Substrate.
row,Binder,IC50
1,B1,11.8 nM
2,B2,18.8 nM
3,B3,12.5 nM
4,B4,5.42 nM
5,B5,7.87 nM
6,B6,15.6 nM
7,B7,9.64 nM
8,B8,9.03 nM
9,B9,1.59 nM
10,B10,3.55 nM

# Target: T2, IL-23 receptor on the surface of …
# Assay: cell-based or functional assay
row,Binder,Inhibition of IL-23 induced pSTAT3 (IC50 nM)
1,B1,10000 nM
2,B2,8110 nM
3,B3,1570 nM
4,B4,1380 nM
5,B5,5650 nM
6,B6,9600 nM
7,B7,6050 nM
8,B8,2210 nM
9,B9,339 nM
10,B10,1610 nM

# Source: patent US20260250322A1, “NEW PEPTIDES AS SELECTIVE IL-23 RECEPTOR INHIBITORS” (SANOFI, priority 2023, published 2026)
